Where “and” joins values, the source holds several entries; their conditions need not be identical. Equal entries are not always repeated. Entries after “also recorded” stand apart in the source; their conditions may differ.
Columns and labels:
[1] = test system: ovarian cancer SKOV-3 cells; test: Soft agar assay, SKOV-3
glioblastoma U87MG cells = test: Soft agar assay, U87MG
[2] = test system: glioblastoma U87MGvIII cells; test: Soft agar assay, U87MGvIII
[3] = test system: lung metastasis of prostate cancer; details: rat, in vivo; cited from earlier work
FC5DIE3IR [4] = target: T1, FC5DIE3IR (Homo sapiens, UniProt Q15858); test: Surface Plasmon Resonance of mAbs, FC5DIE3IR; format: binding; details: Fc-captured mAb, FC5-DIE3IR flowed; SCK; 25 °C
T1 construct: The supernatant was collected and loaded on a 5 ml MabSelect™ SuRe™ column; made in house; host or cells: CHO-3E7 (transient, pTT5 vector), purified from supernatant
Procedure: (§1) Surface Plasmon Resonance of mAbs. FC5 and FC5DIE3IR proteins were SEC purified using a Superdex 75 column (GE Healthcare) connected to an AKTAPurifier (GE Healthcare) in HBS-EP+ running buffer (10 mM HEPES, pH 7.4, containing 150 mM NaCl, 3 mM EDTA and 0.05% P20) at a flow rate of 1 ml/min. Monomeric eluted peaks were used to flow over Fc-capture 3A8 mAb surfaces. To prepare the 3A8 mAb surfaces, approximately 6000 RUs of anti-mouse IgG (GE Healthcare) was first immobilized on CM5 Series S sensor chips (GE Healthcare) at pH 5.0, using standard amine coupling methods previously reported (Hussack et al., 2011) and according to the manufacturer's instructions (GE Healthcare). HBS-EP running buffer used for SPR experiments. The mAb 3A8 was captured on the anti-mouse IgG surface using 10 μg/ml of mAb, 30 sec contact time and flow rate of 10 μl/min. IMAC-purified DI-D VHH was passed through a Superdex 75 (GE Healthcare) column for SEC purification in HBS-EP buffer (10 mM HEPES, pH 7.4, containing 150 mM NaCl, 3 mM EDTA and 0.005% P20), connected to an AKTAPurifier (GE Healthcare) at a flow rate of 1 ml/min. Test binding experiments of FC5 control and FC5DIE3IR involved flowing 1 μM concentrations of SEC-pure material over the mAb surface at a flow rate of 30 μl/min for 5 min. Surfaces could be regenerated using 10 mM glycine, pH 1.7, with a 120 sec pulse at 20 μl/min. All SPR experiments were evaluated with Biacore T200 Software v 3.0. For kinetic analysis, single cycle kinetic analysis was used by flowing a range of FC5DIE3IR concentrations (320 nM-20 nM) at a flow rate of 30 μl/min, with 600 sec contact time and 1200 sec dissociation. Regeneration conditions were the same as above. Data were fit to a 1:1 binding model and analyzed using the Biacore T200 Software v3.0.
(§2) Surfaces were regenerated by washing with running buffer (HBS-EP). Data were analyzed with BIAevaluation 4.1 software as described (Hussack et al., 2011) and affinities determined using the steady state binding model.
(§3) Surface Plasmon Resonance (SPR) for monoclonal antibodies.

FC5DIE3IR [5] = target: T1, FC5DIE3IR; test: Hydrogen-Deuterium Exchange Mass Spectrometry (HDX-MS); format: binding; details: labelling 1, 10 and 60 min
hNav1.7 channels = hNav1.7 channels (Homo sapiens, UniProt Q15858, W1161R); test: Patch-clamp whole-cell recordings in hNav1.7-HEK293 cells; format: cell-based; details: example recordings; 1-3 μM
VHH FC5 = test: Surface Plasmon Resonance of mAbs, FC5 control; format: binding; details: 25 °C
Procedure: as §1, §2, §3

FC5DIE3IR [6] = target: T1, FC5DIE3IR; test: Evaluation of apparent affinity of purified mAbs in ELISA; format: binding; details: purified mAb, OD 405 nm
Procedure: Screening. Hybridoma supernatants were screened by ELISA to detect specific binders. To this end, 96-well half-area plates (Costar #3690) were coated with 25 μl of FC5DIE3IR or FC5-VHH or FC5-hFc-1X0 at 5 μg/ml in PBS and incubated overnight at 4° C. Microplates were washed 3 times with PBS, blocked with PBS-BSA 1%, and 25 μl of hybridoma supernatants were added and incubated at 37° C., 5% CO2 for 2 hours. Plates were washed 4 times with PBS-Tween 20 0.05% and incubated for one hour at 37° C., 5% CO2 with 25 μl of secondary antibody alkaline phosphatase conjugated F(ab′)2 goat anti-mouse IgG Fc-gamma specific (Jackson Immunoresearch #115-056-071) diluted 1/3000 in blocking buffer. After 4 washes with PBS-Tween 20 0.05%, 25 μl of a 1 mg/ml pNPP substrate solution was added and further incubated for one hour at 37° C. OD405 nm measurements were done using a microplate reader (Spectramax 340 PC, Molecular Devices).
Evaluation of apparent affinity in ELISA. Purified antibodies were assessed for their binding activity by ELISA in a dose-dependent binding curve. […] The data were analyzed with GraphPad Prism software using one-site specific binding-with Hill slope non-linear regression curve fit model to determine Bmax (maximum specific binding) and Kdapp (concentration needed to achieve a half-maximum binding at equilibrium) for each mAb tested. […]

CHO-3E7 = test: Cell-ELISA on live CHO-3E7 cells; format: cell-based, Chinese hamster; details: hybridoma supernatant; OD450 nm; duplicate 1
Procedure: Cell-ELISA. Sterile 96-well plates (Costar #3595) were pre-treated with 50 μl/well of branched polyethyleneimine (PEI, Sigma Cat #408727) at 25 μg/ml in PBS for 30 min at room temperature. PEI was removed and CHO-3E7 or hNAv1.7-CHO (ChanTest cat #CT4003) were seeded at 6×10^5 cells per well in FreeStyle F17 Expression Medium (Gibco Cat #A1383501) and incubated overnight at 37° C., 5% CO2. Microplates were blocked with Starting block (Thermofisher Cat #37538) for 30 min at room temperature, and 50 μl of hybridoma supernatants were added and incubated at 4° C. for 3 h. Plates were washed 5 times with PBS and incubated for one hour at 4° C. with 50 μl of secondary antibody HRP-conjugated F(ab′)2 goat anti-mouse IgG (H+L) (Jackson Immunoresearch #115-036-062) diluted 1/5000 in blocking buffer. After 10 washes with PBS, 50 μl of TMB substrate solution (Pierce Cat #34021) was added and further incubated for 60 min at room temperature. Twenty-five μl/well of stop solution ([…] 1M) was added and OD450 nm measurements were done using a microplate reader (Spectramax 340 PC, Molecular Devices).

Sequence of VHH FC5 (as listed by the source): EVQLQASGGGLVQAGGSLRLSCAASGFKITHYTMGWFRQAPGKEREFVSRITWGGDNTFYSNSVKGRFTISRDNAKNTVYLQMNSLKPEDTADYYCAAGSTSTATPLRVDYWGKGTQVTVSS

Molecule | Reduction of colony formation [1] | Reduction of colony formation (glioblastoma U87MG cells) | Reduction of colony formation [2] | Reduction of the number of lung metastasis [3] | ka (FC5DIE3IR [4]) | kd (FC5DIE3IR [4]) | Stabilization of FC5DIE3IR in response to mAb binding (residues, differential HDX-MS) (FC5DIE3IR [5]) | Effect on hNav1.7 currents (in words) (hNav1.7 channels) | Binding to FC5 control (comment, in words) (VHH FC5; SPR) | ka (VHH FC5; target FC5) | kd (VHH FC5; target FC5) | Bmax (maximum specific binding) (FC5DIE3IR [6]) | ELISA on live cells (duplicates) CHO-3E7 (CHO-3E7)
NC1=N[C@H](O)[C@H]2[C@H]3O[C@]4(O)O[C@@H]([C@@H](O)[C@@]2(N1)[C@@H]4O)[C@]3(O)CO [TTX, tetrodotoxin, reference compound] | 70% | 75% and 84% | 55% | > 40% |  |  |  |  |  |  |  |  | 
1G5: mouse mAb IgG1, k binding both FC5 and DIE3IR, no effect on hNav1.7 currents; negative control; SEQ ID NO: 21 and 27 (antibody, V domains shown, Heavy chain of the 1G5 and 1G9 antibodies without leader sequence; Light chain of the 1G5 and 1G9 antibodies without leader sequence) VH: QVQLQQPGAELVKPGASVKLSCKASGYTFTSYWINWVKQRPGQGLEWIGNIYPGNSNTNYNEKFKSKATLTVDKSSSTAYMQLSSLTSEDSAVYYCARRYYYDYDDAMDYWGQGTSVTVSSAKTTPPSVYPLAP VL: DIVLTQSPASLAVSLGQRATISCRASESVDSYGNGFMHWYQQKPGQPPKLLIYRASNLESGIPARVSGSGSRTDFTLTINPVEADDVATYYCQQSNEDPWTFGGGTKLEIKRADAAPTVSIFPPSS |  |  |  |  | 72900 M⁻¹ s⁻¹ | 0.0136 s⁻¹ | no effect on conformational stability | no effect; also recorded: did not reduce hNav1.7 currents | Binding to both | 289000 M⁻¹ s⁻¹ | 0.017 s⁻¹ | 1.7 | 0.008
